The target of one test is T1, Human PD-L1 (human, UniProt Q9NZQ7 19-238, limits assumed).
T1 construct: also called PD-L1 analyte (Biacore); hPD-L1
Kind of test: SPR (Biacore 3000), antibody captured, PD-L1 as analyte, 1:1 fit. The procedure: The binding kinetics between PD-L1 and PD-L1 antibodies were measured by Biacore analysis, which was performed at 25° C. on a Biacore3000 instrument and recorded with a data collection rate of 1 Hz. Polyclonal rabbit anti-mouse IgG (GE, BR-1008-38) was diluted with 10 mM pH 5.0 sodium acetate and immobilized onto reference and experiment flow cells of a CM5 biosensor chip to around 15000 RU using an amine coupling kit (GE, BR10050). […] PD-L1 analyte series were prepared by diluting the stocks with running buffer to 100 nM followed by 2× serial dilution in the same buffer down to 0.78 nM. Analytes were injected in series over the reference and experiment flow cells for 3 minutes at a flow rate of 30 μL/minute. Running buffer (PBS with 0.05% P20) was allowed to flow over for 10 minutes at a flow rate of 30 μL/minute. At the end of each cycle, the biosensor surface was regenerated with 3 minutes injection of 10 mM pH1.7 Glycine-HCl buffer at a flow rate of 10 μL/minute. For each analyte sample injection (i.e. each cycle), binding responses obtained from the experimental biosensor surface were double referenced by subtracting simultaneously recorded responses from the reference surface followed by additional subtraction of responses from a single referenced running buffer sample. The association and dissociation rate constants (ka and kd) were determined simultaneously by fitting double-referenced sensorgrams of the entire titration series to Langmuir model (1:1) using Biaevaluation 4.0 software. The dissociation constant, KD, was calculated from the determined rate constants by the relation KD=kd/ka.

The target of test [1] is T2, PD-L1 on 293T cells (UniProt Q9NZQ7 19-290).
T2 construct: whole, on cells; also called PD-L1-293T; 293T-PD-L1 cells
T2 sequence (Q9NZQ7 19-290 limits assumed): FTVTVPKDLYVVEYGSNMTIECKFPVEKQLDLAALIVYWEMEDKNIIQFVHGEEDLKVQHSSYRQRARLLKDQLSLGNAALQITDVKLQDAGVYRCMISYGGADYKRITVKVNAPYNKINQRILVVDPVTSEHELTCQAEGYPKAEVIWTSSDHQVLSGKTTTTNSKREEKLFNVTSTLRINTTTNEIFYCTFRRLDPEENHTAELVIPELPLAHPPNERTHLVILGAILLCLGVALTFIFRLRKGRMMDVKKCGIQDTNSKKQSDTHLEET
Description: flow cytometry on PD-L1-293T cells. The procedure:
Cell binding analyses of anti-PD-L1 antibodies were performed based on binding to a 293T cell line stably expressing PD-L1 (PD-L1-293T). 2×10⁵ 293T-PD-L1 cells were added into each well of 96-well culture plates and incubated with the indicated antibody (20 μg/ml with the dilution of 1:5) at 4° C. for 1 h. After the cells were washed three times with FACS buffer, the secondary antibody (PE Goat anti-mouse: 1:200; PE mouse anti-human: 1:10) was added to the cells at 100 μl/well, and incubated at 4° C. for 40 min. Cells were washed three times with FACS buffer and analyzed by FACS Array.
A general note: In flow cytometry, cells or beads pass a laser one at a time.

In another test the target is T3, hPD-L1-hFc (human).
T3 construct: it may hold a signal peptide ('open reading frame of the extracellular domain'); also called PD-L1-hFc protein; human PD-L1 extracellular domain fused with human Fc tag
T3 sequence (chain, as listed by the source limits assumed): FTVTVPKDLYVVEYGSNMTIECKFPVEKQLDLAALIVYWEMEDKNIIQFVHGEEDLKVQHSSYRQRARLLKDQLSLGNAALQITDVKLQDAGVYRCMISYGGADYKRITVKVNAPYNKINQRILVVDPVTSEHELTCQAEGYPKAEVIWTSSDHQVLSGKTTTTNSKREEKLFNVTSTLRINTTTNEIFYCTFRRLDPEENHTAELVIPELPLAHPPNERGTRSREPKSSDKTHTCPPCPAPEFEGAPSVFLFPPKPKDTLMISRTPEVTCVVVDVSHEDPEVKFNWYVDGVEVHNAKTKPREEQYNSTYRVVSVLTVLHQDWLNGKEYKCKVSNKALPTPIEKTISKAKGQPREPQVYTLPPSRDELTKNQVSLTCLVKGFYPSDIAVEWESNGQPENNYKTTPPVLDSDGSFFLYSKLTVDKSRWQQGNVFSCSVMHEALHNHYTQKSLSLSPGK
Kind of test: ELISA, coated PD-L1-hFc. The procedure:
ELISA binding analyses were conducted based on human PD-L1-mFc (for chimeric and humanized antibody detection) and PD-L1-hFc protein (for hybridoma antibody detection). 96-well plates (Costar, Cat No: 9018) were coated with 100 μL of 2 μg/ml PD-L1-mFc (Crownbio) in coating buffer PBS (Hyclone, Cat No: SH30256.01B) overnight at 4° C. The wells were aspirated and non-specific binding sites were blocked by adding 200 μL of blocking buffer (PBS with 1% (w/v) of bovine serum albumin (BSA, Roche, Cat No:738328)) and incubating for 1 hour at 37° C. After the plates were washed three times with wash buffer (PBS with 0.05% (v/v) Tween20 (Sigma, Cat No:P1379)), 100 μL/well of 1:10 serial dilutions of hybridoma (FIG. 1), chimeric (FIG. 2), or humanized (FIG. 3) anti-PD-L1 antibodies in blocking buffer (starting from 20 μg/mL) were added and incubated at room temperature for 1 hour. The plates were washed and incubated with 100 μL/well of Goat anti-Mouse IgG (H+L) (Thermo, Cat No: 31432) in blocking buffer for 60 min. After the plates were washed, 100 μL/well of substrate solution TMB (eBioscience, Cat No: 00-4201-56) were added and the plates were incubated for 2 min at room temperature. 100 μL/well of stop solution (2N H₂SO₄) was added to stop the reaction. The colorimetric signals were developed and read at 450 nm using an Auto Plate SpectraMax Plus (Supplier: Moleculer Devices; Model: MNR0643; Software: SoftMax Pro v5.4). Data were analyzed using GraphPad Prism 5 and EC50 was calculated (FIGS. 1-3; Tables 5-7).
Background: ELISA stands for enzyme-linked immunosorbent assay.

The target in test [2] is T4, biotinylated human PD-L1-mFc (human, biotinylated (sites not given)).
T4 construct: also called PDL-1-mFc-biotin
T4 sequence (chain, as listed by the source limits assumed): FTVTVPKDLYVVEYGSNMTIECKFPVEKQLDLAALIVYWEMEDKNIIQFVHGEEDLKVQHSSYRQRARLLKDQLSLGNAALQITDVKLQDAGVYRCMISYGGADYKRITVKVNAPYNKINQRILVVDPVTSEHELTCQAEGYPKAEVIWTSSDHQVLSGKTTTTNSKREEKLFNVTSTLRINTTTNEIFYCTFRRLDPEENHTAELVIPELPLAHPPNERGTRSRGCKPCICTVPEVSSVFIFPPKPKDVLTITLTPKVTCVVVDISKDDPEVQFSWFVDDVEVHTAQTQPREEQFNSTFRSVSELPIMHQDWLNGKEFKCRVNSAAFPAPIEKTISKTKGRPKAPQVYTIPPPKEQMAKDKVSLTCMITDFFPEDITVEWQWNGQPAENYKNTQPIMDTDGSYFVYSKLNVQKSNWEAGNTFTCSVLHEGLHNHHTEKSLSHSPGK
Kind of test: competition ELISA: blocks PD-L1-mFc-biotin binding to coated PD-1-hFc. The procedure:
The wells were aspirated and non-specific binding sites were blocked by adding 200 μL of blocking buffer (PBS with 1% (w/v) of bovine serum albumin (BSA, Roche, Cat No:738328)) and incubating for 1 hour at 37° C. After the plate was washed three times with wash buffer (PBS with 0.05% (v/v) Tween20 (Sigma, Cat No:P1379)), 100 μL/well of 1:3 serial dilutions of hybridoma (FIG. 4), chimeric (FIG. 5), or humanized (FIG. 6) anti-PD-L1 antibodies in blocking buffer (starting from 20 μg/mL) were added and incubated at 37° C. for 1 hour. […] After the plate was washed 3 times, secondary antibody (Avidin HRP eBioscience cat No.: E07418-1632, 1:500, 100 μl/well) was added and incubated at 37° C. for 0.5 hour. After the plate was washed, 100 μL/well of substrate solution TMB (eBioscience, Cat No: 00-4201-56) was added and the plate was incubated for 3min at room temperature. 100 μL/well of stop solution (2N H₂SO₄) was added to stop the reaction. The colorimetric signals were developed and read at 450 nm using an Auto Plate SpectraMax Plus (Supplier: Moleculer Devices; Model: MNR0643; Software: SoftMax Pro v5.4). Data were analyzed using GraphPad Prism 5 and IC50 was calculated (FIGS. 4-6; Tables 8-10).

The target in test [3] is T2, PD-L1 on 293T cells. Kind of test: flow cytometry competition: blocks biotin-labeled PD-1 binding to PD-L1-293T cells. The procedure: Briefly, PD-L1-293T cells were suspended in FACS buffer (PBS with 3% fetal calf serum). Various concentrations of the hybridoma (FIG. 10), chimeric (FIG. 11), or humanized (FIG. 12) anti-PD-L1 antibodies were added to the cell suspension and incubated at 4° C. for 60 minutes in 96 well plates. […] The cells were washed 3 times with PBS and incubated with mouse anti-biotin PE (Biolegend, cat# 409004). The cell-associated fluorescence was then detected by flow cytometry analysis using FACS array.

Changes are numbered by the printed parent chain.

T1 sequence (Q9NZQ7 19-238 limits assumed): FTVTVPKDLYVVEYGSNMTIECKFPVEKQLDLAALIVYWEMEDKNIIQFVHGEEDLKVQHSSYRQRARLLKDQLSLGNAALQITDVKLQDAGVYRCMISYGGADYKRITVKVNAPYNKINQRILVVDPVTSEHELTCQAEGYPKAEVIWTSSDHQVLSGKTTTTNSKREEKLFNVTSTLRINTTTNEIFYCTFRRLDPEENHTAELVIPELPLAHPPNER

B1: m8H4 (antibody, V domains shown)
VH: EVKLVESGGGLVKPGGSLKLSCAASGFTFRSYGMSWARQIPEKRLEWVASISSGGTTYYLGSVQGRFTISRDNARNILYLQMSSLRSEDTAMYYCARGYDAGFAYWGQGTLVSVSE
VL: DIVLTQSPASLAVSLGQRATISCRASQSVSTSSYSYMHWYQQKPGQPPKLLIKYASNLESGVPARFSGSGSGTDFTLNIHPVEEEDTATYYCQNSWEIPYTFGGGTKLEIK
notes: Murine hybridoma IgG (printed 'mIgG'); also called 8H4-mIgG; 8H4 murine
B1 showed a dissociation constant Kd with Human PD-L1 of 4.56 nM. Also, the values for the EC50 with PD-L1 on 293T cells [1] and in the test with hPD-L1-hFc were 0.0435 µg/mL and 0.029 µg/mL, respectively. The IC50 turned out to be 0.788 µg/mL in test [2] and 0.0306 µg/mL with PD-L1 on 293T cells [3].

B2: ch13C5 (antibody)
VH: B1 VH with T28I, A37V, I40T, T56S, L60P, G61D, Q64K, Y94D, A101S, S113T
light: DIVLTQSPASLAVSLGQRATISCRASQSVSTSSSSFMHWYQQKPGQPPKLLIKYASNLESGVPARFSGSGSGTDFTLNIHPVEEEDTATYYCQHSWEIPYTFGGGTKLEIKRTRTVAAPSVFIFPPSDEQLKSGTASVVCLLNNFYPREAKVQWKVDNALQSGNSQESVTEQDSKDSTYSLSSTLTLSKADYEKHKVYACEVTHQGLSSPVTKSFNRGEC
Take B2: in the test with Human PD-L1, binding was characterised by a dissociation constant (Kd) of 2.28 nM.

B3: m5G9 (antibody, V domains shown)
VH: B1 VH with A37V, I40T, L60P, G61D, Q64K, T68I, R97K, A101S, S113I, E116A
VL: B1 VL with A9P, Y34S, N94H
notes: Murine hybridoma IgG (printed 'mIgG'); also called 5G9-mIgG; 5G9 murine
On to B3, for which, in the test with Human PD-L1, the affinity, expressed as Kd, was 4.78 nM. The EC50 with PD-L1 on 293T cells [1] was determined as 0.0337 µg/mL; with hPD-L1-hFc, 0.0312 µg/mL. The IC50 in test [2] was 0.613 µg/mL; with PD-L1 on 293T cells [3] it was 0.0491 µg/mL.

B4: m15F1 (antibody, V domains shown)
VH: EEKLVESGGGLVKPGGSLKLSCAASGFSFSSYGMSWVRQTPEKRLEWVASISSGGSIYYPDSVKGRFTISRDNARNILYLQMSSLRSEDTAMYYCARGYDAGFAFWGQGTLVTASA
VL: B1 VL with M37V, N94H
notes: Murine hybridoma IgG (printed 'mIgG'); also called 15F1-mIgG; 15F1 murine
For the molecule B4, binding with Human PD-L1 was characterised by a dissociation constant (Kd) of 3.59 nM. Also, the results for the EC50 with PD-L1 on 293T cells [1] and with hPD-L1-hFc were 0.0478 µg/mL and 0.0487 µg/mL, respectively. Moreover, the IC50 in test [2] amounted to 0.655 µg/mL; with PD-L1 on 293T cells [3], 0.0211 µg/mL.

B5: m13C5 (antibody, V domains shown)
VH: B4 VH with E2V, S28I, S30R, I57T, Y94D, A101S, F105Y, A114V, A116E
VL: DIVLTQSPASLAVSLGQRATISCRASQSVSTSSSSFMHWYQQKPGQPPKLLIKYASNLESGVPARFSGSGSGTDFTLNIHPVEEEDTATYYCQHSWEIPYTFGGGTKLEIKR
notes: Murine hybridoma IgG (printed 'mIgG'); also called 13C5-mIgG; 13C5 murine
Turning to B5, the Kd in the test with Human PD-L1 was determined as 1.35 nM. Moreover, the results for the EC50 with PD-L1 on 293T cells [1] and in the test with hPD-L1-hFc were 0.0453 µg/mL and 0.0651 µg/mL, respectively. For the same molecule, the IC50 in test [2] was found to be 0.872 µg/mL; with PD-L1 on 293T cells [3], 0.0289 µg/mL.

B6: m7B4 (antibody, V domains shown)
VH: EVKLFESGGGLVQPGGSLKLSCVASGFDFSTYWMHWVRQAPGQGLEWIGQINPDSTTINYAPSLKDRFIISRDNAKNTLFLQMSKVRSEDTALYYCAKPGDYGYDFDCWGQGTTLTVSS
VL: DVLMTQTPLYLPVSLGDQASISCRSSQIIVHSNANTYLEWFLQKPGQSPKLLIYKVSNRFSGVPDRFSGSGSGTDFTLKISRVEAEDLGVYYCFQGSHVPYTFGGGTKLEIK
notes: Murine hybridoma IgG (printed 'mIgG'); also called 7B4-mIgG; 7B4 murine
For the molecule B6, the Kd with Human PD-L1 was found to be 6.01 nM. The EC50 worked out at 0.0474 µg/mL with PD-L1 on 293T cells [1] and 0.0314 µg/mL with hPD-L1-hFc. The IC50 worked out at 0.892 µg/mL in test [2] and 0.0381 µg/mL in the test with PD-L1 on 293T cells [3].

B7: m5G11 (antibody, V domains shown)
VH: QVQLKQSGPGLVQPSQSLSITCTVSGFSLTTYGVHWVRQSPGKGLEWLGVIWRGVTTDYNAAFMSRLTITKDNSKSQVFFKMNSLQANDTAIYYCARLGFYAMDYWGQGTSVTVSS
VL: SIVMTQTPKFLLVSAGDRVTITCKASQSVSNDVAWYQQKPGQSPKLLIYYAANRYTGVPDRFTGSGYGTDFTFTISIVQAEDLAVYFCQQDYTSPYTFGGGTKLEIK
notes: Murine hybridoma IgG (printed 'mIgG'); also called 5G11-mIgG; 5G11 murine
Molecule B7 displayed a Kd in the test with Human PD-L1 of 0.19 nM. Also, the EC50 with PD-L1 on 293T cells [1] came out at 0.0359 µg/mL; in the test with hPD-L1-hFc, 0.0459 µg/mL. For the same molecule, the concentration for half-maximal inhibition (IC50) is 0.71 µg/mL in test [2] and 0.0163 µg/mL with PD-L1 on 293T cells [3].

B8: ch5G11 (antibody)
VH: B7 VH
light: SIVMTQTPKFLLVSAGDRVTITCKASQSVSNDVAWYQQKPGQSPKLLIYYAANRYTGVPDRFTGSGYGTDFTFTISIVQAEDLAVYFCQQDYTSPYTFGGGTKLEIKRTVAAPSVFIFPPSDEQLKSGTASVVCLLNNFYPREAKVQWKVDNALQSGNSQESVTEQDSKDSTYSLSSTLTLSKADYEKHKVYACEVTHQGLSSPVTKSFNRGEC
notes: Mouse VH linked to a human constant region
B8 displayed a Kd in the test with Human PD-L1 of 0.286 nM.

B9: m4A8 (antibody, V domains shown)
VH: B7 VH with T31S, R53S, V55G, T56I, M64K, T68S, T70S, Y94F
VL: QIVLTQSPAIMSASPGEKVTMTCSANSSVSYMHWYQQKSGTSPKRWIYDTSKLASGVPARFSGSGSGTSYSLTISSMGAEDAATYYCQQWSSNPWTFGGGTKLEIK
notes: Murine hybridoma IgG (printed 'mIgG'); also called 4A8-mIgG; 4A8 murine
For the molecule B9, in the test with Human PD-L1, the Kd stood at 2.33 nM. Moreover, the values for the EC50 in the test with PD-L1 on 293T cells [1] and with hPD-L1-hFc were 0.0678 µg/mL and 0.0576 µg/mL, respectively. Further, the IC50 in test [2] was determined as 0.868 µg/mL; with PD-L1 on 293T cells [3], 0.0291 µg/mL.

B10: m8C6 (antibody, V domains shown)
VH: B7 VH with T31S, R53S, V55G, T56V, M64I, T68S, T70S
VL: B7 VL with A34G, A52S, T56S, I77T
notes: Murine hybridoma IgG (printed 'mIgG'); also called 8C6-mIgG; 8C6 murine
The molecule B10 had a dissociation constant Kd with Human PD-L1 of 1.53 nM. Besides, the values for the concentration for a half-maximal effect (EC50) with PD-L1 on 293T cells [1] and in the test with hPD-L1-hFc were 0.041 µg/mL and 0.0182 µg/mL, respectively. Further, the 50% inhibitory concentration (IC50) stood at 0.344 µg/mL in test [2] and 0.0082 µg/mL in the test with PD-L1 on 293T cells [3].

A word on the Kd: it is the concentration at which binding is half-saturated. A higher Kd goes with weaker binding. Usually EC50 stands for the concentration that produces a half-maximal response. Low readings indicate a more potent agent, high ones a less potent agent. The term IC50 denotes the concentration that inhibits the measured activity by half. High values mean lower potency, low ones higher potency.

The record behind these values is US20170204184A1 (CB THERAPEUTICS, published 2017).
